Laboratory results published in paper PMC10488932.

How the values were obtained:
[1] = target: hybrid chaperone protein ADGroEL–SacSm (Escherichia coli | Sulfolobus acidocaldarius); assay: dynamic light scattering; particle size under native conditions, Zetasizer Nano ZSP, 25 °C, detection angle 173°
[2] = target: Sm-like protein from Sulfolobus acidocaldarius (SacSm) (Sulfolobus acidocaldarius); assay: as above

Row | Substance | stoichiometry N [1] | stoichiometry N [2]
1 | hybrid chaperone protein ADGroEL–SacSm | 7 | –
2 | Sm-like protein from Sulfolobus acidocaldarius (SacSm) (natural protein) | – | 7
